This is an account of results in patent US20170051059A1.

The target of this assay is human FcRn (human) (UniProt P55899). Nature of the assay: SPR (Biacore), pH 7.1; antibody captured on biot-IZ-hCD40L, soluble receptor as analyte. On the technique in general: Surface plasmon resonance follows binding to a sensor surface in real time, without labels.
Chain of UniProt P55899 (P55899 24-297 limits assumed, chain 1 of 2): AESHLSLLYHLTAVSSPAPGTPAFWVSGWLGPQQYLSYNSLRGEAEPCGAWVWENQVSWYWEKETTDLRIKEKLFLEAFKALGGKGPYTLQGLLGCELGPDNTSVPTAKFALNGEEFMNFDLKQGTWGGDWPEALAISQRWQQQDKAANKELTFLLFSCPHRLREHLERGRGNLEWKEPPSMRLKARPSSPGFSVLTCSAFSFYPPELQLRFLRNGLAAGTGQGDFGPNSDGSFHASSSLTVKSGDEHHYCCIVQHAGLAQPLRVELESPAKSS
Chain of UniProt P55899 (chain, as listed by the source limits assumed, chain 2 of 2): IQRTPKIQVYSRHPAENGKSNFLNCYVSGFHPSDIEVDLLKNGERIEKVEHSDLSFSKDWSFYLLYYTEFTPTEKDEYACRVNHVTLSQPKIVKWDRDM

The Kd is a measure of binding affinity in units of concentration. Substance 5c8-IgG1 (antibody) gave a Kd of more than 5 µM.
